Results as given in the DeepSol protein solubility set.

Assay: soluble on expression in E. coli; label from the status in PepcDB or PDB records
With “TDGQLTKQHVRALAISALAPKPHETLWDIGGGSGSIAIEWLRSTPQTTAVCFEISEERRERILSNAINLGVSDRIAVQQGAPRAFDDVPDNPDVIFIGGGLTAPGVFAAAWKRLPVGGRLVANAVTVESEQMLWALRKQFGGTISSFAISHEHTVGSFITMKPALPVHQWTVVKALTKEL” the “soluble on expression in E. coli” value was “soluble”.
With “MGSDKIHHHHHHMPLNMNRDVFITAAVTGSGGTQDKSPHVPRSPKEIAASAIEAARAGAAVVHCHVRDPETGAPSRRLELYRELTDRIRDSEVDVVLNLTAGMGGDIVFGSTEAPLPVNEAATDMIGATERMAHIAECLPEICTLDCGTMNFAEADYVMTNTPGMLRAMGQMMTDLGVKPEIEAFDTGHLWFAKQLVKEGILEPNALVQLCMGVPWGAPNDLNTFMAMVNNVPSDWTWSAFSLGRDQMPFAAASVLAGGNVRVGLEDNLFLDKGVLATNAQLVERAVSVIEGMGAKIVGPDAVREKLGLTKRAPVAA” the “soluble on expression in E. coli” value was “not soluble”.
With “MGSDKIHHHHHHMGDLPGLVRLSIALRIQPNDGPVFYKVDGQRFGQNRTIKLLTGSSYKVEVKIKPSTLQVENISIGGVLVPLELKSKEPDGDRVVYTGTYDTEGVTPTKSGERQPIQITMPFTDIGTFETVWQVKFYNYHKRDHCQWGSPFSVIEYECKPNETRSLMWVNKESFL” the “soluble on expression in E. coli” value was “not soluble”.
With “AKLLPKLQKQNLSDSAQQIAQERGLGNSSQRKVYLPIIRAYRVGPELIDWTDGKNLRELGIYRQTGCYIERIRRNGILAHPDGDAILQEGDEIALVGFPDSHARLDPSFRNGKEVFDRNLLDLRIVEEEIVVKSDAIAGKRLSDLNLSEFGCFLNRVVRAQIEMPMDLDIVLAKGDVLQVSGEKSRVHGLAEKIGFISIHSQMAD” the “soluble on expression in E. coli” value was “not soluble”.
With “MGSDKIHHHHHHMTKKLTNQLIDVTSGRNFRELGGYETNSGKKIKMHKLLRTGNLADLSPFDKQFLTDYGVKYDVDFRSKEEVERQPDRVPDGVEYIYDPVFSEDLTNSSKSINDLNTQASDDADFGFNHMHYAYEDMIESESAQKAYRKFFDVLLKNDVEGESVIFHCTAGKDRTGFGALLILSALGVPFNTIKKDYLLTNITTKEFVESMVEHARQNGRNENVLQSIRDIQSVRAEYIDHAVKIINDDYGSIHNYLRDMMKLSSADIMKLRNIYLED” the “soluble on expression in E. coli” value was “not soluble”.
With “VTALLDVNVLIALGWPNHVHHAAAQRWFTQFSSNGWATTPITEAGYVRISSNRSVMQVSTTPAIAIAQLAAMTSLAGHTFWPDDVPLIVGSAGDRDAVSNHRRVTDCHLIALAARYGGRLVTFDAALADSASAGLVEVL” the “soluble on expression in E. coli” value was “not soluble”.
With “MPPKPKKSTGAKKKVSKLNKRPSKISVVSVNERSKNERSVMQSIEQEEATNNEIVPTPKKTTAQIAQQPTPTLPQIIAKQEPEVAMKTMMLPPPSDPPPPPPPVAPHQPPPQLATSAQPPQPPVINSQLPRMSPAPAIPPSMAQPLLQSPSPGADIAIRRPSKEKTDEKSVDETGGSDKKKRTEVICSWIRLVLQNGVAGLKKEYRDSPNEAPEDIATSFLGNPTRNRYRNIPCCDITRVKLTDDPHFYIHANLVSSGPNPRRFICTQAPLNGTIEEFWKMIIVTGIEYIVMLCELVEKGKPKSAEYFPSQIGQTTKIGRLCTVTKESRVDIDKTLVMSTMRISKPGDNAVVKIVKHIHWRNWPDHGVPDNFLSPFRLLTVVKNCTKPIVVHCSAGVGRTGTLALILIILESICLPDFIGVPRLLAKLREERFRAVQTEMQYLYAHRCVLEYLALKKYVQSREDFAKFAKDYEQALAMCPKEA” the “soluble on expression in E. coli” value was “not soluble”.
For “MLSVMRMQIPKTHPRYESLMKREKIIEALDKGILAKAGLIAHGRGETFDYLIGEKTAPIALEAIKAAAALLILAENPVISVNGNTVALAIDEVVELAKELNGKIEVNLFYRTKERELAIKRAFEEKFKDDIETGKIKILGIDDANKQIPNLDSLRGKVSEEGIFTADVVLVPLEDGDRAEALVNMGKKVIAIDLNPLSRTARKSTITIVDELTRAMPLLIKYVKEFKNKDREELLKIVEDFDNKKNLKDMIDYIAERLKNLSLEHHHHHH”, the “soluble on expression in E. coli” value was “soluble”.
With “MKKSSILILIIICLVGCKKGSNETTITGEIKGLGTDTLYLYGMDELYDRIDTIYVENDKFSYTTSVDTITSAYLLLKNRIEYPVFLDKGNKIKIKGDTINLNFLTISGNIYNEEFTDFQKALEDPADPSEKAGEETVDKRITVEKANTAEEMAEEFILQHHSSYVSLYLLDKYFVQKETPDFSKIKKLVEVMTGVLQDKPYIERLNETITQAEKSEIGKYAPFFSLPNAKGEKITRSSDAFKQKSLLINFWASWNDSISQKQSNSELREIYKKYKKNKYIGMLGISLDVDKQQWKDAIKRDTLDWEQVCDFGGLNSEVAKQYSIYKIPANILLSSDGKILAKNLRGEELKKKIENIVEEATEKEKKNKQKK” the “soluble on expression in E. coli” value was “not soluble”.
For “DWNNQSIVKTGERQHGIHIQGSDPGGVRTASGTTIKVSGRQAQGILLENPAAELQFRNGSVTSSGQLSDDGIRRFLGTVTVKAGKLVADHATLANVGDTWDDDGIALYVAGEQAQASIADSTLQGAGGVQIERGANVTVQRSAIVDGGLHIGALQSLQPEDLPPSRVVLRDTNVTAVPASGAPAAVSVLGASELTLDGGHITGGRAAGVAAMQGAVVHLQRATIRRGDALAGGAVPGGAVPGGAVPGGFGPGGFGPVLDGWYGVDVSGSSVELAQSIVEAPELGAAIRVGRGARVTVPGGSLSAPHGNVIETGGARRFAPQAAPLSITLQAGAHAQGKALLYRVLPEPVKLTLTGGADAQGDIVATELPSIPGTSIGPLDVALASQARWTGATRAVDSLSIDNATWVMTDNSNVGALRLASDGSVDFQQPAEAGRFKVLTVNTLAGSGLFRMNVFADLGLSDKLVVMQDASGQHRLWVRNSGSEPASANTLLLVQTPLGSAATFTLANKDGKVDIGTYRYRLAANGNGQWSLVGAKAPP”, the “soluble on expression in E. coli” value was “soluble”.
With “MAHHHHHHMDTTTLKEADMNQMIIQLMEREKKKKKKKNIYEQKKMEPQNYSHMKKFKISPKEEKSLNKEEIKSHLINFFQEQEKIYKDEELNTKNYIIDETKKKEKEVYLNGYYIYCQDFKNEYNNYFNSFIKESEDIKKDLKDLQIQYMDDKILLGNKRKMELDNMLHFYKEKLLDIKNHWDTKNFCDDNLKNIVYDILNVIN” the “soluble on expression in E. coli” value was “not soluble”.
With “MAHHHHHHMQTNYNEIRNLFNYYIREYFYQKSKGSYFVHFKKPGILFMSLKCYKRKKMYYPCIYDWYFDNLNNVKKNKDIFQYKNEYNTKNIYSHKICTEKENLGKNNSYVETDNIYLNKSEENLQNIYKSSNLYYNINPIYLSKICLYNLNEYHILYSNNYYDAFTQYYYSLISYKMDVHNMKIFPNLKILISHIKNISNIINDEVIKNAYIYLIKQRNIMNEEYLKNVFRNIYTTMLHNSSLYLFVDNHDQFIMILKIIKTDDIKSMFESAIPYPYYLIVDENINIYNLQSFNIYINSILNQRMQYNYPYNEKEKGSILNHYNNDKMYMTYNNNINQSKDIKIEKQTEQNEKGFNSMLDTDKGVYEKNIIKDKNDKVYFFKFIKIFDMKPNYRFKQKK” the “soluble on expression in E. coli” value was “not soluble”.
In the case of “MGSDKIHHHHHHMDLASRLLLLLEVSELGSFVKVSELRNVNRSAISKQIGKLEKELGVHLLNRTTRSLSLTAAGSEMVNQAKQLRDLLNNSKRLAENYHSEPRGELKISSSTLFGRQYVQQAVLKFQAQYPDIRIELLLEDRIVDLVGEGFDIGFRIGEPKESNLIAKQIAQNRLLIVAAPSFIEKHGKPTTIPKLESLPAVVYSAQGLLIDKIKYLDNTGNEAFIQLNTAYKVNEVEMLINTAVAGEMLTVTTAQMIENEVLEGKLIPIMTHINLADYGTFYAVYPHRNSPLKTKLFIETLKEVVGDKRPIWETRIPGFDKMYNNKT”, the “soluble on expression in E. coli” value was “not soluble”.
In the case of “MGSDKIHHHHHHMRIQQLHYIIKIVECGSMNEAAKQLFITQPSLSNAVKDLEMEMGITIFNRNPKGITLTKDGVEFLSYARQIIEQTSLLEDRYKNHNTGRELFSVSSQHYAFVVNAFVSLLKRTDMTRYELFLRETRTWEIIDDVKNFRSEIGVLFINDYNRDVLTKLFDDNHLTASPLFKAQPHIFVSKSNPLATKSLLSMDDLRDFPYLSYDQGIHNSFYFSEEMMSQMPHNKSIVVSDRATLFNLMIGLDGYTVASGILNSNLNGDQIVAIPLDVPDEIDIVFIKHEKANLSKMGERFIEYLLEEVTFD”, the “soluble on expression in E. coli” value was “not soluble”.
With “MGSDKIHHHHHHMKIAQIAPLFEAVPPRLYGGTERVVASICDALVKAGHQVDLYASGDSQSKARLIPCRERALRLDPAPLKSDIAAHYTLLDEVRRHAGEYDILHFHTDMLHFPFFEPIASKTLTTLHGRLDMADLPNAFKRWRQFPLVSISNDQRRALPGANWAGTVYHGLDPALYRFNPNPQGGYLAFLGRISPEKRPDRAIAIARKAGIPLKIAAKVDAADLNYYNDVIKPLLNQADVEFIGEITDAQKNDFLGNALALLFPVDWPEPFGLVMIEAMACGTPVIAWRCGSVPEIIEPGRNGFIVTDEHQAAAACHAATTLDRAKVREAFDMRFTSDVMAEHYLKLYKRLAASANDDNLMESQVG” the “soluble on expression in E. coli” value was “not soluble”.
For “SSSLHKSRIADFQDVLKEPSIALEKLRELSFSGIPCEGGLRCLCWKILLNYLPLERASWTSILAKQRELYAQFLREMIIQPGIAKANMGVSREDVTFEDHPLNPNPDSRWNTYFKDNEVLLQIDKDVRRLCPDISFFQRATDYPCLLILDPQNEFETLRKRVEQTTLKSQTVARNRSGVTNMSSPHKNSAPSSLNEYEVLPNGCEAHWEVVERILFIYAKLNPGIAYVQGMNEIVGPLYYTFATDPNSEWKEHAEADTFFCFTNLMAEIRDNFIKSLDDSQCGITYKMEKVYSTLKDKDVELYLKLQEQNIKPQFFAFRWLTLLLSQEFLLPDVIRIWDSLFADDNRFDFLLLVCCAMLMLIREQLLEGDFTVNMRLLQDYPITDVCQILQKAKELQDSK”, the “soluble on expression in E. coli” value was “soluble”.
In the case of “MHGTCLSGLYPVPFTHNSHDYPHFNIYISFGGPKYCITALNTYVTPLLHRILTTQFIYTYANITKKSPLKSPKHKNILFFNHNT”, the “soluble on expression in E. coli” value was “soluble”.
For “MSLNVLIIGAGAVGLCLAAKLSNVADVFAVTRERNAKIIRESGFKMTGIWGEGTFNFEASENVPERDFDYIIISSKGLATKSICEQFKDVINGKNVISMQNGVGNEEIILRYTDKVIGGTIITGFEWKGDAKVHVSVEGGPMTVGRFPNGTDKEVTDFVKLIKSSGIPVNETENIQGAIWSKTIYNCALNPLGAVMNVPYGELSNEHSWNIIKNIVSEIFEITSKKGVILPWKTSEEYLKYLKEFQLPNTAAHHSSMLQDISKGNITEIDFLNGAVVTIAKEFGIKTPYNKFITEQIKFLENLKSKKEGHHHHHH”, the “soluble on expression in E. coli” value was “soluble”.
With “GMTASTAPQTEPHKTSAPESGPVMLLVATIKGAWFLASDPARRTWELRGPVFLGHTIHHIVQDPREPERMLMAARTGHLGPTVFRSDDGGGNWTEATRPPAFNKAPEGETGRVVDHVFWLTPGHASEPGTWYAGTSPQGLFRSTDHGASWEPVAGFNDHPMRRAWTGGEQDGTPDGPKMHSILVDPRDPKHLYIGMSSGGVFESTDAGTDWKPLNRGCAANFLPDPNVEFGHDPHCVVQHPAAPDILYQQNHCGIYRMDRREGVWKRIGDAMPREVGDIGFPIVVHQRDPRTVWVFPMDGSDVWPRVSPGGKPAVYVTRDAGESWQRQDRGLPTDQAWLTVKRQAMTADAHAPVGVYFGTTGGEIWASADEGEHWQCIASHLPHIYAVQSARPV” the “soluble on expression in E. coli” value was “soluble”.
With “MSLATFEKQKIEQAIGSIQGALGVLEKGQMTEIMPPKRIQALPIQQNVDTPEAINAFASMITEYSEMTKISDGPAVKMEEAEDGFILSIPSELLFESGSATITNKEGILFLKRTALEINKLSNDMHIKVIGHTDNDRLRPTATYKDNWELSIARGVNVAKMLLEERVNPARISAGGNGEFDPVASNATPEGKAKNRRVDLYFFSVSKNEEEIKKSQKNSEGHHHHHH” the “soluble on expression in E. coli” value was “soluble”.
With “SNSALYNVDAGHRAVIFDRFRGVQDIVVGEGTHFLIPWVQKPIIFDCRSRPRNVPVITGSKDLQNVNITLRILFRPVASQLPRIYTSIGEDYDERVLPSITTEILKSVVARFDAGELITQRELVSRQVSDDLTERAATFGLILDDVSLTHLTFGKEFTEAVEAKQVAQQEAERARFVVEKAEQQKKAAIISAEGDSKAAELIANSLATAGDGLIELRKLEAAEDIAYQLSRSRNITYLPAGQSVLLQLPQ” the “soluble on expression in E. coli” value was “soluble”.
